From patent US20040229310A1 (Genentech, published 2004)
One block for each binder: values may come before it.

Assays:
VEGF [1] = molecular target: T1, VEGF (UniProt P15692-4 27-191, limits assumed); assay: BIAcore SPR, VEGF coupled to the chip, full-length antibody injected; Kd = koff/kon; original FR1 subgroup III sequence (pxVG11VNERK)
T1 construct: Coupled covalently to the biosensor chip; also called VEGF antigen; VEGF (109)
Method: (§1) The VEGF-binding affinities of full length antibodies produced in bacterial cells were calculated from association and disassociation rate constants measured using a BIAcore™-2000 surface plasmon resonance system (BIAcore, Inc., Piscataway, N.J.) as described in Chen et al, (1999) J. Mol. Bio. 293:865-881). A biosensor chip was activated for covalent coupling of VEGF using N-ethyl-N′-(3-dimethylaminopropyl)-carbo-dimide hydrochloride (EDC) and N-hydroxysuccinimid (NHS) according to the supplier's (BIAcore, Inc., Piscataway, N.J.) instructions. VEGF (109) or VEGF (165) was buffer-exchanged into 20 mM sodium acetate, pH 4.8 and diluted to approximately […] to achieve approximately 700-1400 response units (RU) of coupled protein. A solution of 1 M ethanolamine was injected as a blocking agent.
(§2) For kinetics measurements, twofold serial dilutions of full length antibodies were injected in PBS/Tween buffer (0.05% Tween-20 in phosphate-buffered saline) at 25° C. or 37° C. at a flow rate of 10 μl/minute. Equilibrium dissociation constants, Kd values from SPR measurements were calculated as koff/kₒₙ.
(§3) To determine if the FR1 subgroup substitutions had any effect on the binding affinity for VEGF antigen, an affinity assay was performed using the expressed antibodies obtained from bacterial cells.

VEGF [2] = molecular target: T1, VEGF; assay: BIAcore SPR, VEGF coupled to the chip, full-length antibody injected; Kd = koff/kon; subgroup I sequence substitution (pVKFR1-2)
Method: as §1, §2, §3

T1 sequence (P15692 other isoform, or with tags, fused parts or gaps limits assumed): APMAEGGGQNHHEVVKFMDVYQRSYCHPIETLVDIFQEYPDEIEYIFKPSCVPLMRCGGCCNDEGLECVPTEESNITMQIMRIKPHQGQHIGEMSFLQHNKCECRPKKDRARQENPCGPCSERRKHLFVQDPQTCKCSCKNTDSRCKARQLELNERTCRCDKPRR

Kd (VEGF [1]): 120 pM
B1: anti-VEGF antibody VNERK with heavy chain FR1 subgroup III sequence (plasmid pxVG11VNERK) (antibody, V domains shown)
VH: EVQLVESGGGLVQPGGSLRLSCAASGYTFTNYGINWVRQAPGKGLEWVGWINTYTGEPTYAADFKRRFTFSLDTSKSTAYLQMNSLRAEDTAVYYCAKYPHYYVNERKSHWYFDVWGQGTLVTVSS
VL: DIQLTQSPSSLSASVGDRVTITCSASQDISNYLNWYQQKPGKAPKVLIYFTSSLHSGVPSRFSGSGSGTDFTLTISSLQPEDFATYYCQQYSTVPWTFGQGTKVEIKR
notes: Full-length humanized antibody made in E. coli (aglycosylated); also called anti-VEGF (VNERK); xVEGF (VNERK)

Kd (VEGF [2]): 190 pM
B2: anti-VEGF antibody VNERK with heavy chain FR1 subgroup I consensus sequence (plasmid pVKFR1-2) (antibody, V domains shown)
VH: QVQLVQSGAEVKKPGASVKVSCKASGYTFTNYGINWVRQAPGKGLEWVGWINTYTGEPTYAADFKRRFTFSLDTSKSTAYLQMNSLRAEDTAVYYCAKYPHYYVNERKSHWYFDVWGQGTLVTVSS
VL: B1 VL
notes: Full-length antibody made in E. coli; differs from VNERK (pxVG11VNERK) by 12 substitutions in heavy chain FR1 (subgroup III to subgroup I); also called pVKFR1-2 (FR1 = SGI); VNERK HCFR1=SGI
